Assay results from publication PMC9239104, “Scaffolding Protein GspB/OutB Facilitates Assembly of the Dickeya dadantii Type 2 Secretion System by Anchoring the Outer Membrane Secretin Pore to the Inner Membrane and to the Peptidoglycan Cell Wall” (mBio, 2022).

B2: OutB HR domain (residues P112 to K220), purified (domain or fragment)
chain: PAKLVTGWQTAKPGELPYIAFSAHVYTSAPDKRSVTLNGERYREGDSPYQGLVIEQIEQDMVIFSFNGEPFILDSLQDWPGGKPGDDAAQGNEQEPTSKPEQTVRTTKK
notes: OutB (GspB) of Dickeya dadantii, conserved periplasmic domain, residues 112 to 220; uniformly 15N-labelled where it was the observed protein; the NMR methods speak of residues 112 to 193, the results and legends of 112 to 220; also called OutB^112–220; 15N-labeled OutB HR domain; source: E. coli BL21(DE3), purified (glutathione Sepharose, on-column PreScission cleavage, Superdex S200); not shown: …

Assays:
[1] = target: OutD N0 domain (residues 1 to 85 of signal peptide-less OutD), purified (Dickeya dadantii) (UniProt Q01565); experiment: NMR titration; competition: 15N OutB HR 40 μM, unlabelled OutD N0 60 μM, unlabelled OutC HR 120, 240 and 360 μM; HSQC chemical shifts
[2] = target: B2; experiment: as above; conditions: both partners purified
[3] = target: T1, OutD N0-N1-N2 domains (residues 1 to 258 of signal peptide-less OutD), purified (Dickeya dadantii, UniProt Q01565 28-285); experiment: NMR titration; 1H-15N HSQC of a 15N-labelled domain alone or with the unlabelled partner; each protein 200 μM; 15°C, 20 mM Tris-HCl pH 7.0, 10% D2O; conditions: both partners purified
T1 construct: secretin OutD (GspD) of Dickeya dadantii, N0, N1 and N2 domains, residues A1 to V258; numbers count on: the mature protein
T1 sequence: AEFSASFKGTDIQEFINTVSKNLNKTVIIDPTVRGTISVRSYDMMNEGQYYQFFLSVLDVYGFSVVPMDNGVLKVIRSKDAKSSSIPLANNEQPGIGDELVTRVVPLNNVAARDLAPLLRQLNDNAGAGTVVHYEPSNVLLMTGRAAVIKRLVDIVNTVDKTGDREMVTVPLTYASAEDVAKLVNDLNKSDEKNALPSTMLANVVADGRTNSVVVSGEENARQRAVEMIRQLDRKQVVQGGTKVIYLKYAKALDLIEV

“OutC HR domain (residues A78 to S158) (domain or fragment)” was tested, and the Kd [1] was 1000 µM.

B1: OutD N0 domain (residues 1 to 85 of signal peptide-less OutD), purified (domain or fragment)
chain: AEFSASFKGTDIQEFINTVSKNLNKTVIIDPTVRGTISVRSYDMMNEGQYYQFFLSVLDVYGFSVVPMDNGVLKVIRSKDAKSSS
notes: secretin OutD (GspD) of Dickeya dadantii, N0 domain, residues A1 to S85; numbers count on: the mature protein; 15N-labelled in the reciprocal experiment
B1 gave a Kd [2] of ~10 µM.

B2: binds [3].
